Here are results for 23 variants from the supplement of paper PMC7125110.

Sequences and labels used below:
B1: glmS ribozyme (parent)
chain: AUAAAAGCGCCAGAACUACAGAAAUGUAGUUGACGAGGAGGAGGUUUAUCGAAUUUUCGGCGGAUGCCUCCAAA

Holding throughout (conditions): with glucosamine-6-phosphate
In data set [1] the parent is B1. In words: self-cleavage kobs at 40 uM GlcN6P; higher = faster cleavage; RNA array. Put shortly: (§1)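 E. coli RNA polymerase transcribed barcoded ribozyme variants in situ on sequenced MiSeq chips, which were tracked via a hybridised Cy3 probe at 37 °C. Tiles were imaged over ~14 h after glucosamine-6-phosphate (40 μM to 10 mM) in HEPES/KCl/Mg(OAc)2 buffer was flowed in. Normalised per-tile medians were fit to one- or two-exponential decays for kobs, and kcat and KM came from weighted Michaelis–Menten fits.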

Variants of B1 are the subject of data set [2]. In words: self-cleavage kobs at 160 uM GlcN6P; higher = faster cleavage; RNA array. The gist of the method: as §1
Data set [3] covers variants of B1. In words: self-cleavage kobs at 640 uM GlcN6P; higher = faster cleavage; RNA array. The gist of the method: as §1
In data set [4] the parent is B1. In words: self-cleavage kobs at 2500 uM GlcN6P; higher = faster cleavage; RNA array. Put shortly: as §1
Variants of B1 are the subject of data set [5]. In words: self-cleavage kobs at 10000 uM GlcN6P; higher = faster cleavage; RNA array. Put shortly:
as §1

± gives the standard error. Variants at the floor of the assay were thinned out.

With C16U U49C, in the data set with glucosamine-6-phosphate [1], the “self-cleavage kobs at 40 uM GlcN6P” value is under 1e-05 s⁻¹. Also, in the data set with glucosamine-6-phosphate [2], the “self-cleavage kobs at 160 uM GlcN6P” value is under 1e-05 s⁻¹. The “self-cleavage kobs at 640 uM GlcN6P” value in the data set with glucosamine-6-phosphate [3] is under 1e-05 s⁻¹. The “self-cleavage kobs at 2500 uM GlcN6P” value in the data set with glucosamine-6-phosphate [4] was under 1e-05 s⁻¹.
In the case of C11U U65A, the “self-cleavage kobs at 40 uM GlcN6P” value with glucosamine-6-phosphate [1] was under 1e-05 s⁻¹. Moreover, the “self-cleavage kobs at 640 uM GlcN6P” value with glucosamine-6-phosphate [3] stood at 0.000121 ± 3.6e-05 s⁻¹. In addition, the “self-cleavage kobs at 2500 uM GlcN6P” value in the data set with glucosamine-6-phosphate [4] amounted to 9.22e-05 ± 2e-05 s⁻¹.
As for C11U A15G C50G, in the data set with glucosamine-6-phosphate [1], the “self-cleavage kobs at 40 uM GlcN6P” value was 5.89e-05 ± 2.4e-05 s⁻¹.
Same read-out and setting: the result for C11A A48C U55C C61A reads under 1e-05 s⁻¹.
As to C11G A39U G60A, the “self-cleavage kobs at 40 uM GlcN6P” value with glucosamine-6-phosphate [1] was under 1e-05 s⁻¹. The “self-cleavage kobs at 160 uM GlcN6P” value in the data set with glucosamine-6-phosphate [2] is under 1e-05 s⁻¹. In addition, in the data set with glucosamine-6-phosphate [3], the “self-cleavage kobs at 640 uM GlcN6P” value was under 1e-05 s⁻¹. Also, the “self-cleavage kobs at 2500 uM GlcN6P” value with glucosamine-6-phosphate [4] was under 1e-05 s⁻¹.
Take U30A G35A: the “self-cleavage kobs at 40 uM GlcN6P” value with glucosamine-6-phosphate [1] is under 1e-05 s⁻¹. In the data set with glucosamine-6-phosphate [2], the “self-cleavage kobs at 160 uM GlcN6P” value was under 1e-05 s⁻¹. For the same variant, the “self-cleavage kobs at 640 uM GlcN6P” value in the data set with glucosamine-6-phosphate [3] was under 1e-05 s⁻¹. In addition, the “self-cleavage kobs at 2500 uM GlcN6P” value with glucosamine-6-phosphate [4] is under 1e-05 s⁻¹. In addition, the “self-cleavage kobs at 10000 uM GlcN6P” value with glucosamine-6-phosphate [5] was under 1e-05 s⁻¹.
As to G29C A48U, the “self-cleavage kobs at 40 uM GlcN6P” value with glucosamine-6-phosphate [1] was under 1e-05 s⁻¹. For the same variant, in the data set with glucosamine-6-phosphate [2], the “self-cleavage kobs at 160 uM GlcN6P” value is under 1e-05 s⁻¹.
A36C U54C A64U C67G: the “self-cleavage kobs at 40 uM GlcN6P” value with glucosamine-6-phosphate [1] was under 1e-05 s⁻¹.
A12U A52G: in the data set with glucosamine-6-phosphate [1], the “self-cleavage kobs at 40 uM GlcN6P” value is 8.7e-05 ± 1.3e-05 s⁻¹. Besides, the “self-cleavage kobs at 160 uM GlcN6P” value with glucosamine-6-phosphate [2] is 0.000171 ± 6.4e-05 s⁻¹. Also, the “self-cleavage kobs at 640 uM GlcN6P” value with glucosamine-6-phosphate [3] was 0.000717 ± 0.00014 s⁻¹. Besides, in the data set with glucosamine-6-phosphate [4], the “self-cleavage kobs at 2500 uM GlcN6P” value is 0.00267 ± 0.00049 s⁻¹. In addition, in the data set with glucosamine-6-phosphate [5], the “self-cleavage kobs at 10000 uM GlcN6P” value turned out to be 0.00785 ± 0.0012 s⁻¹.
As for U30A C50G, in the data set with glucosamine-6-phosphate [1], the “self-cleavage kobs at 40 uM GlcN6P” value turned out to be 3.17e-05 ± 1.5e-05 s⁻¹. Besides, the “self-cleavage kobs at 160 uM GlcN6P” value in the data set with glucosamine-6-phosphate [2] came to 6.28e-05 ± 1.6e-05 s⁻¹. In addition, in the data set with glucosamine-6-phosphate [3], the “self-cleavage kobs at 640 uM GlcN6P” value was determined as 0.00128 ± 0.0005 s⁻¹. Also, the “self-cleavage kobs at 2500 uM GlcN6P” value in the data set with glucosamine-6-phosphate [4] was determined as 6.93e-05 ± 1.6e-05 s⁻¹.
For G44C G59C, the “self-cleavage kobs at 40 uM GlcN6P” value with glucosamine-6-phosphate [1] was under 1e-05 s⁻¹. Further, the “self-cleavage kobs at 640 uM GlcN6P” value with glucosamine-6-phosphate [3] was under 1e-05 s⁻¹. Further, the “self-cleavage kobs at 2500 uM GlcN6P” value in the data set with glucosamine-6-phosphate [4] is under 1e-05 s⁻¹. Further, in the data set with glucosamine-6-phosphate [5], the “self-cleavage kobs at 10000 uM GlcN6P” value was under 1e-05 s⁻¹.
On to A14G G40U C58G G60A, for which the “self-cleavage kobs at 40 uM GlcN6P” value with glucosamine-6-phosphate [1] was under 1e-05 s⁻¹. For the same variant, in the data set with glucosamine-6-phosphate [4], the “self-cleavage kobs at 2500 uM GlcN6P” value was under 1e-05 s⁻¹.
Take G13C G29U A48U: the “self-cleavage kobs at 40 uM GlcN6P” value in the data set with glucosamine-6-phosphate [1] is under 1e-05 s⁻¹. Further, the “self-cleavage kobs at 640 uM GlcN6P” value in the data set with glucosamine-6-phosphate [3] was under 1e-05 s⁻¹.
With A52G A53C U54A, in the data set with glucosamine-6-phosphate [1], the “self-cleavage kobs at 40 uM GlcN6P” value is under 1e-05 s⁻¹.
As to G35U G40U, in the data set with glucosamine-6-phosphate [1], the “self-cleavage kobs at 40 uM GlcN6P” value is under 1e-05 s⁻¹. Further, the “self-cleavage kobs at 160 uM GlcN6P” value with glucosamine-6-phosphate [2] was under 1e-05 s⁻¹. Also, in the data set with glucosamine-6-phosphate [3], the “self-cleavage kobs at 640 uM GlcN6P” value is under 1e-05 s⁻¹. The “self-cleavage kobs at 2500 uM GlcN6P” value in the data set with glucosamine-6-phosphate [4] was under 1e-05 s⁻¹. In addition, the “self-cleavage kobs at 10000 uM GlcN6P” value with glucosamine-6-phosphate [5] is under 1e-05 s⁻¹.
In the case of G7U C10A G60U, the “self-cleavage kobs at 40 uM GlcN6P” value with glucosamine-6-phosphate [1] was under 1e-05 s⁻¹. The “self-cleavage kobs at 160 uM GlcN6P” value with glucosamine-6-phosphate [2] was under 1e-05 s⁻¹. Further, the “self-cleavage kobs at 2500 uM GlcN6P” value with glucosamine-6-phosphate [4] was under 1e-05 s⁻¹.
As for C8G C61G, the “self-cleavage kobs at 40 uM GlcN6P” value with glucosamine-6-phosphate [1] was under 1e-05 s⁻¹. For the same variant, the “self-cleavage kobs at 160 uM GlcN6P” value with glucosamine-6-phosphate [2] was under 1e-05 s⁻¹. For the same variant, the “self-cleavage kobs at 640 uM GlcN6P” value with glucosamine-6-phosphate [3] is under 1e-05 s⁻¹. Moreover, the “self-cleavage kobs at 2500 uM GlcN6P” value in the data set with glucosamine-6-phosphate [4] is under 1e-05 s⁻¹. In addition, the “self-cleavage kobs at 10000 uM GlcN6P” value in the data set with glucosamine-6-phosphate [5] is under 1e-05 s⁻¹.
In the case of A14G A39G, the “self-cleavage kobs at 40 uM GlcN6P” value with glucosamine-6-phosphate [1] stood at 0.004 ± 0.00057 s⁻¹. The “self-cleavage kobs at 160 uM GlcN6P” value in the data set with glucosamine-6-phosphate [2] came to 0.00304 ± 0.00096 s⁻¹. For the same variant, the “self-cleavage kobs at 640 uM GlcN6P” value with glucosamine-6-phosphate [3] was found to be 0.0236 ± 0.0054 s⁻¹. Further, the “self-cleavage kobs at 10000 uM GlcN6P” value in the data set with glucosamine-6-phosphate [5] was found to be 0.138 ± 0.052 s⁻¹.
Consider G7A C58A C67G, for which the “self-cleavage kobs at 40 uM GlcN6P” value with glucosamine-6-phosphate [1] came to 5.23e-05 ± 2.2e-05 s⁻¹.
On to C34U G40A, for which the “self-cleavage kobs at 40 uM GlcN6P” value with glucosamine-6-phosphate [1] is under 1e-05 s⁻¹. For the same variant, the “self-cleavage kobs at 2500 uM GlcN6P” value with glucosamine-6-phosphate [4] is under 1e-05 s⁻¹. In addition, in the data set with glucosamine-6-phosphate [5], the “self-cleavage kobs at 10000 uM GlcN6P” value was under 1e-05 s⁻¹.
Consider C8G G32U G38C G51U, for which the “self-cleavage kobs at 40 uM GlcN6P” value with glucosamine-6-phosphate [1] is under 1e-05 s⁻¹.
On the same count and under the same terms, the result for G32U A36G U45C C68G reads under 1e-05 s⁻¹.
In the case of G41U G59U, in the data set with glucosamine-6-phosphate [1], the “self-cleavage kobs at 40 uM GlcN6P” value is under 1e-05 s⁻¹. For the same variant, in the data set with glucosamine-6-phosphate [2], the “self-cleavage kobs at 160 uM GlcN6P” value was under 1e-05 s⁻¹. Also, the “self-cleavage kobs at 640 uM GlcN6P” value in the data set with glucosamine-6-phosphate [3] was under 1e-05 s⁻¹.
